{"source": "paper PMC11344278", "about": "“Structural and biochemical characterization of the C‐terminal region of the human RTEL1 helicase” (Protein Science : A Publication of the Protein Society, 2024)", "molecules": {"B1": {"name": "DNA fork (D1L:D3L) (dsDNA)", "DNA 1": "CTACTACCCCCACCCTCACAACCTTTTTTTTTTTTTTT", "DNA 2": "TTTTTTTTTTTTTTTGGTTGTGAGGGTGGGGGTAGTAG"}, "B2": {"name": "RNA fork (R1L:R3L) (dsRNA)", "RNA 1": "CUACCCCCACCCUCACAACCUUUUUUUUUUUUUUU", "RNA 2": "UUUUUUUUUUUUUUUGGUUGUGAGGGUGGGGGUA"}}, "key": {"[1]": {"molecular_target": "T1, RTEL1 HHD1-2 (Homo sapiens) (UniProt Q9NZ71)", "T1 sequence": "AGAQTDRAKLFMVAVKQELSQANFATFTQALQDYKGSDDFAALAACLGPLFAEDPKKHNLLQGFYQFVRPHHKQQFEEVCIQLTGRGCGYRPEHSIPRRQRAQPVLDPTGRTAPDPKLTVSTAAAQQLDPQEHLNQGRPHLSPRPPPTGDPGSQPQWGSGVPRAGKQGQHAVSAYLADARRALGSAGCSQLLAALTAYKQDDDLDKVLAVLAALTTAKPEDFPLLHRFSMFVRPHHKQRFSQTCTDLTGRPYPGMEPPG", "experiment": "fluorescence anisotropy", "settings": "0.5 mM Mg2+; 20 mM Tris pH 7.5, 50 mM KCl, 0.5 mM MgCl2, 10% glycerol, 0.1% Igepal, 10 nM substrate; EMSA at room temperature 15 min (0-160 nM protein), FA at 25 C …"}, "[2]": {"molecular_target": "T2, RTEL1 CT-L (entire C-terminal region) (Homo sapiens) (UniProt Q9NZ71)", "T2 sequence (Q9NZ71 whole entry, looked up)": "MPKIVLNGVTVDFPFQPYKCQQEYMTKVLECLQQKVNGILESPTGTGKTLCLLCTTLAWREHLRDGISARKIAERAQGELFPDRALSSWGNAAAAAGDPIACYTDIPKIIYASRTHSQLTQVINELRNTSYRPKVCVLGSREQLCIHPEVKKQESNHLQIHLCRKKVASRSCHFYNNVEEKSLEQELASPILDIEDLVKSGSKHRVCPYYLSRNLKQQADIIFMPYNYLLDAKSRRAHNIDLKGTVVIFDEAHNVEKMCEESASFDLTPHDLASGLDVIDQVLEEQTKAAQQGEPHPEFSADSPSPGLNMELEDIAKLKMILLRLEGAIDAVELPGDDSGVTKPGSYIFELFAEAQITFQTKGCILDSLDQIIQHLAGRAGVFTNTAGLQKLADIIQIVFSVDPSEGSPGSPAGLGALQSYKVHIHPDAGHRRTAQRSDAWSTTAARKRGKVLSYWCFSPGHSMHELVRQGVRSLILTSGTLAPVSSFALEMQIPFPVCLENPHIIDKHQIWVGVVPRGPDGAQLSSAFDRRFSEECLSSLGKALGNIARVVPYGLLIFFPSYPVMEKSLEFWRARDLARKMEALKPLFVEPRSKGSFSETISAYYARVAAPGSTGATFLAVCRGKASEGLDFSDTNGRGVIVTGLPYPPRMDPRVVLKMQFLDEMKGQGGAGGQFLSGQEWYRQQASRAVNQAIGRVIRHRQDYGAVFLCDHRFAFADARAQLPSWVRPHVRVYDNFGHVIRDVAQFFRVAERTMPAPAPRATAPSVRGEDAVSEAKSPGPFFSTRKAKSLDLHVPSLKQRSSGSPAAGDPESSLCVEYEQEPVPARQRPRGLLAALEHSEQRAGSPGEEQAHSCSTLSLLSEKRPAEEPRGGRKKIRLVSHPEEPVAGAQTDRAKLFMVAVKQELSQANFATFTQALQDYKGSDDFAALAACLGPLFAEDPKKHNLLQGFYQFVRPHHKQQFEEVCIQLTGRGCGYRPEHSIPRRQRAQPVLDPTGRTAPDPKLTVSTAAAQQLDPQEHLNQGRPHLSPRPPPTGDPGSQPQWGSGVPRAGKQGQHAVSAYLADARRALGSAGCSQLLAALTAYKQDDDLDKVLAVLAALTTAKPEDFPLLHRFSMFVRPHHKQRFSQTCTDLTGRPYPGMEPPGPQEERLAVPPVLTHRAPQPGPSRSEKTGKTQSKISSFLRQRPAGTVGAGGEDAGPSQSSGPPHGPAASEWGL", "experiment": "EMSA", "settings": "0.5 mM Mg2+, 20 mM Tris pH 7.5, 50 mM KCl, 0.5 mM MgCl2, 10% glycerol, 0.1% Igepal, 10 nM substrate, EMSA at room temperature 15 min (0-160 nM protein), FA at 25 C …"}, "[3]": {"molecular_target": "T3, RTEL1 HHD2 (Homo sapiens, UniProt Q9NZ71 1053-1147)", "T3 sequence": "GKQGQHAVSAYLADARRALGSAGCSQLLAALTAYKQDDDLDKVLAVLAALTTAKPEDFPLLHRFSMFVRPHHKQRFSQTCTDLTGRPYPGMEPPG", "experiment": "fluorescence anisotropy; 0.5 mM Mg2+; 20 mM Tris pH 7.5, 50 mM KCl, 0.5 mM MgCl2, 10% glycerol, 0.1% Igepal, 10 nM substrate; EMSA at room temperature 15 min (0-160 nM protein), FA at 25 C (0-2500 nM protein); Hill-slope fit", "settings": "protein: recombinant, tags: N-terminal 6His-Trx removed by TEV"}, "[4]": {"molecular_target": "T4, human PCNA (Proliferating Cell Nuclear Antigen) (human, UniProt P12004 1-261, uniformly 2H,13C,15N labelled (for NMR experiments))", "T4 construct": "3-residue N-terminal extension left after HRV 3C cleavage, preceding the native initial methionine; human PCNA, UniProt P12004, from the native initial methionine; The methods describe only the isotopically labelled PCNA made for NMR; not shown: His6, N-terminal, cleaved", "T4 sequence (P12004 other isoform, or with tags, fused parts or gaps)": "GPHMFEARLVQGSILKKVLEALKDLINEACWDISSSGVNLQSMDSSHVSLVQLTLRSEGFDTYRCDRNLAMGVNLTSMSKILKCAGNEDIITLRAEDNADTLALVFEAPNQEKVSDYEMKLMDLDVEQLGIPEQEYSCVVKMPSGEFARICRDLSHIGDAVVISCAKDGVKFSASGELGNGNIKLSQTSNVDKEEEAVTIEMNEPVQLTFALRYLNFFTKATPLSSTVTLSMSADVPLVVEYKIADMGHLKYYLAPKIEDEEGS", "experiment": "ITC; 16.8 uM PCNA in the cell, 282 uM PIP1 peptide in the syringe; 35 °C; PBS pH 7.0, 1 mM TCEP; fitted to a 1:1 binding model (one set of identical sites)", "settings": "both partners purified"}}}
{"molecule": "CUACCCCCACCCUCACAACCUUUUUUUUUUUUUUU [ssRNA]", "values": [{"measurement": "Kd", "setting": "[1]", "value": 192, "unit": "nM"}, {"measurement": "Kd", "setting": "[2]", "value": 46, "unit": "nM"}]}
{"molecule": "CUACCCCCACCCUCACAACCUUUUUUUUUUUUUUU / UUUUUUUUUUUUUUUGGUUGUGAGGGUGGGGGUA [RNA fork (R1L:R3L)]", "values": [{"measurement": "Kd", "setting": "[1]", "value": 273, "unit": "nM"}, {"measurement": "Kd", "setting": "[2]", "value": 51, "unit": "nM"}]}
{"molecule": "TTAGGGTTAGGGTTAGGGTTAGGGTT [2JPZ telomeric G4]", "values": [{"measurement": "Kd", "setting": "[2]; K+", "value": 26, "unit": "nM"}]}
{"molecule": "CTACTACCCCCACCCTCACAACC (double strand) [dsDNA (D1B:D3B)]", "values": [{"measurement": "Kd", "setting": "[2]", "value": 63, "unit": "nM"}]}
{"molecule": "UUAGGGUUAGGGUUAGGGUUAGGG [TERRA G4]", "values": [{"measurement": "Kd", "setting": "[1]", "value": 38, "unit": "nM"}, {"measurement": "Kd", "setting": "[2]; K+", "value": 10, "unit": "nM"}]}
{"molecule": "CTACTACCCCCACCCTCACAACCTTTTTTTTTTTTTTT / TTTTTTTTTTTTTTTGGTTGTGAGGGTGGGGGTAGTAG [DNA fork (D1L:D3L)]", "values": [{"measurement": "Kd", "setting": "[1]", "value": 155, "unit": "nM"}, {"measurement": "Kd", "setting": "[2]", "value": 43, "unit": "nM"}]}
{"molecule": "TGAGGGTGGGTAGGGTGGGTAA [1XAV c-Myc promoter G4]", "values": [{"measurement": "Kd", "setting": "[2]; K+", "value": 57, "unit": "nM"}]}
{"molecule": "GTACCCGGGGATCCTCTAGAGTCGACCTGCAGGCATGCAAGCTTGGCACTGGCCGTCGTTTTACAAC / GTTGTAAAACGACGGCCAGTGCCTTTTCCCAGCCTCAATCTCATCACTCTAGAGGATCCCCGGGTAC / GCUUGCAUGCCUGCAGGCCAGCCUCAAUCUCAUCUUUUU [R-loop (R4:D9:D11)]", "values": [{"measurement": "Kd", "setting": "[1]", "value": 160, "unit": "nM"}, {"measurement": "Kd", "setting": "[2]", "value": 10, "unit": "nM"}]}
{"molecule": "CTACTACCCCCACCCTCACAACCTTTTTTTTTTTTTTT [ssDNA]", "values": [{"measurement": "Kd", "setting": "[1]", "value": 247, "unit": "nM"}, {"measurement": "Kd", "setting": "[2]", "value": 40, "unit": "nM"}]}
{"molecule": "GTACCCGGGGATCCTCTAGAGTCGACCTGCAGGCATGCAAGCTTGGCACTGGCCGTCGTTTTACAAC / GTTGTAAAACGACGGCCAGTGCCTTTTCCCAGCCTCAATCTCATCACTCTAGAGGATCCCCGGGTAC / GCTTGCATGCCTGCAGGCCAGCCTCAATCTCATC [D-loop (D4:D9:D11)]", "values": [{"measurement": "Kd", "setting": "[1]", "value": 327, "unit": "nM"}, {"measurement": "Kd", "setting": "[2]", "value": 11, "unit": "nM"}]}
{"molecule": "CTACTACCCCCACCCTCACAACCTTTTTTTTTTTTTTT / UUUUUUUUUUUUUUUGGUUGUGAGGGUGGGGGUA [DNA/RNA fork (D1L:R3L)]", "values": [{"measurement": "Kd", "setting": "[2]", "value": 52, "unit": "nM"}]}
{"molecule": "GTACCCGGGGATCCTCTAGAGTCGACCTGCAGGCATGCAAGCTTGGCACTGGCCGTCGTTTTACAAC / GTTGTAAAACGACGGCCAGTGCCTTTTCCCAGCCTCAATCTCATCACTCTAGAGGATCCCCGGGTAC [Bubble (D9:D11)]", "values": [{"measurement": "Kd", "setting": "[2]", "value": 27, "unit": "nM"}]}
{"molecule": "B1", "values": [{"measurement": "Kd", "setting": "[3]; label: 5' 6-FAM on strand 1, fork: 23 bp duplex, T15 arms (3' on strand 1, 5' on strand 2)", "value": "254 ± 52", "unit": "nM"}]}
{"molecule": "B2", "values": [{"measurement": "Kd", "setting": "[3]; label: 5' 6-FAM on strand 1, fork with U15 arms (3' on strand 1, 5' on strand 2), end as printed not fully blunt", "value": "512 ± 104", "unit": "nM"}]}
{"molecule": "UUAGGGUUAGGGUUAGGGUUAGGG (structured_RNA)", "note": "[TERRA G4]", "values": [{"measurement": "Kd", "setting": "[3]; label: 5' 6-FAM, G4", "value": "489 ± 124", "unit": "nM"}]}
{"molecule": "QSKISSFL", "note": "[RTEL1 PIP1 peptide (canonical PIP-box of human RTEL1)]", "values": [{"measurement": "Kd", "setting": "[4]", "value": "53300 ± 7200", "unit": "nM"}]}
